{
  "source": "paper PMC4575908",
  "substrate": "O=C(O)[C@H]1O[C@@H](Oc2ccc([N+](=O)[O-])cc2)[C@H](O)[C@@H](O)[C@@H]1O",
  "format": "biochemical",
  "settings": "37.0 °C",
  "data": [
    {"protein": "SaGUS (Streptococcus agalactiae 2603V/R) (protein) MLYPLLTKTRNTYDLGGIWNFKLGEHNPNELLPSDEVMVIPTSFNDLMVSKEKRDYIGDFWYEKVIEVPKVSEDEEMVLRFGSVTHQAKIYVDGVLVGEHKGGFTPFEVLVPECKYNNEKIKVSICANNVLDYTTLPVGNYSEIIQEDGSIKKKVRENFDFFNYAGVHRPLKLMIRPKNHIFDITITSRLSDDLQSADLHFLVETNQKVDEVRISVFDEDNKLVGETKDSRLFLSDVHLWEVLNAYLYTARVEIFVDNQLQDVYEENFGLREIEVTNGQFLLNRKPIYFKGFGKHEDTFINGRGLNEAANLMDLNLLKDMGANSFRTSHYPYSEEMMRLADRMGVLVIDEVPAVGLFQNFNASLDLSPKDNGTWNLMQTKAAHEQAIQELVKRDKNHPSVVMWVVANEPASHEAGAHDYFEPLVKLYKDLDPQKRPVTLVNILMATPDRDQVMDLVDVVCLNRYYGWYVDHGDLTNAEVGIRKELLEWQDKFPDKPIIITEYGADTLPGLHSTWNIPYTEEFQCDFYEMSHRVFDGIPNLVGEQVWNFADFETNLMILRVQGNHKGLFSRNRQPKQVVKEFKKRWMTIPHYHNKKNSVK", "values": [
      {"measurement": "Km", "result": "360 ± 30", "unit": "µM"},
      {"measurement": "kcat", "result": "80 ± 2", "unit": "s⁻¹"},
      {"measurement": "kcat/Km", "result": 224000, "unit": "M⁻¹ s⁻¹"}
    ]}
  ]
}
